We go through two molecules from PMC8584381, “A Small Step, a Giant Leap: Somatic Hypermutation of a Single Amino Acid Leads to Anti-La Autoreactivity” (International Journal of Molecular Sciences, 2021).

Residue numbers refer to the chain shown, from its start. Numbers in names are those of the source.

Experiment [1] concerns the target T1, native human La protein of HeLa total cell extract (Homo sapiens (HeLa, endogenous), UniProt P05455).
T1 construct: La protein (La/SS-B), human, endogenous in HeLa cells; also called native La protein; source: endogenous, HeLa total extract
Nature of the experiment: co-IP; HeLa total extract (50 nM Tris/HCl pH 8.0, 150 mM NaCl, 1% IGEPAL CA-630) mixed with 2 µg purified ab and Protein G MicroBeads, on ice 30 min; La detected by blot with anti-La mab 5B9. The note with it: one partner purified.

The target in experiment [2] is T2, recombinant human La protein (Homo sapiens, UniProt P05455).
T2 construct: La protein (La/SS-B, Sjögren's syndrome associated antigen B), human; It calls wildtype La an undefined mixture of oxidized and reduced protein; also called rh-La; wildtype La protein; source: bacteria lysates, purified (Ni-NTA)
Nature of the experiment: far-Western, overlay or dot blot; SDS-PAGE/immunoblotting under denaturing conditions: 2 µg rh-La or TCM-La on nitrocellulose, IgG4 ab constructs at 1.5 µg/mL in Blocking Solution, detected with anti-human IgG4-HRP. The note with it: both partners purified. (In general: In western blotting, separated proteins are transferred to a membrane and probed.)

T2 sequence (P05455 whole entry): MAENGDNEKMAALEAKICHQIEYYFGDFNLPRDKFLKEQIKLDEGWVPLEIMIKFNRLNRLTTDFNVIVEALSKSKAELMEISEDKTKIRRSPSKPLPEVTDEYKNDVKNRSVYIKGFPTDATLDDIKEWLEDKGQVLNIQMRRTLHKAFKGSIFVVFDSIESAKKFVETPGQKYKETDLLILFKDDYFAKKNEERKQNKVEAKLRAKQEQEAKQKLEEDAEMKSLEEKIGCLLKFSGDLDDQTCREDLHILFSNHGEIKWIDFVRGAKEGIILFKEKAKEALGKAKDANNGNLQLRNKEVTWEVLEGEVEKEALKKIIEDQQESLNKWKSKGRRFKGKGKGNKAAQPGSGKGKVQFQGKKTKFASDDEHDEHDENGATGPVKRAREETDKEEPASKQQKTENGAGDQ
T1 sequence (P05455 whole entry): as above

B1: murine 312B-IgG4 (scFv of the mature 312B VH and VL fused to human IgG4 Fc) (Fc fusion, mouse)
VH: QVKLQESGAELMKPGSSVKFSCKAAGYTFTDYWIEWLKQRPGHGLEWIGEILPGSVSIKYNEKFKGKATFTADTSSNTAYMQLSSLTSEDSAVYYCARSRSIYDGYFYYWGQGTTLTVSS
VL: DIVMTQSTASLSASVGETVTITCRASENIYTYLAWYQQKQGKSPQLLVYNAKTLAEGVPSRFSGSGSGTQFSLRINSLQPEDFGSYYCQHHYGTPYTFGGGTKLEIK
notes: flexible linker of three G4S motifs; VH-VL orientation; N-terminal murine Ig kappa leader for secretion; also called mature ab; source: permanent 3T3 production cell line, purified from cell culture supernatant (protein A); not shown: Fc (human IgG4, CH2 and CH3), C-terminal, kept
Turning to B1, the binding result in experiment [1] and in experiment [2] was “binds” each time.

B2: mutated germline 312B-IgG4 with an aspartate to tyrosine mutation in the CDR3 region of the VH domain (Fc fusion, mouse)
VH: QVQLQQSGAELMKPGASVKLSCKATGYTFTGYWIEWVKQRPGHGLEWIGEILPGSGSTNYNEKFKGKATFTADTSSNTAYMQLSSLTTEDSAIYYCARSRSIYDGYFYYWGQGTTLTVSS
VL: B1 VL with V3Q, T8P, T31S, R74K
notes: as the germline VH of m6 with the aspartate in CDR3 replaced by tyrosine; flexible linker of three G4S motifs; as the germline VL of m6; VH-VL orientation; N-terminal murine Ig kappa leader for secretion; also called gl312B-D > Y; source: permanent 3T3 production cell line, purified from cell culture supernatant (protein A); not shown: Fc (human IgG4, CH2 and CH3), C-terminal, kept
In the case of B2, the binding result in experiment [1] and in experiment [2] was “binds” throughout.
